{"source": "patent US8357518B2", "about": "“Thermostable enzymes for the hydrolysis of mannan-containing polysaccharides” (The Board of Trustees of the University of Illinois, priority 2010, dated 2013)", "proteins": {"B1": {"name": "Caldanaerobius polysaccharolyticus endo-β-mannanase Man5A truncation mutant Man5A-TM1, SEQ ID NO: 28 (Caldanaerobius polysaccharolyticus) (protein)", "chain": "AGTSGDGRFHVVGNKIVDPDGKDFIIKGVNIQGYRSWEKRSVLQDVHLIADVWKFNTVRLNCFIGQNNWGEGTGANNDIDAIIKAFTAKKVVVEIDLHDTTGYPPLSNPPPAPGQPSLDQAIAWFKELAAKYKDNPYVWFNTMNEPGSSTAPLDPQWKVANEEIIKAIRSTGADNIIVVDGWSYANEGIEQNTPTVDEKRSAVLTYGQDLLNADSAKNTIFAFHNYNEGDIQKKVEDYIDRANAKGLYVFMEEYGKDYSDAAKEGVKSGLQAVMNKGAGRIYWNWDGYDLYDLTSGTGRGSGWEINKTDGSKPTNLSWVGDKIWDDNHGITPTFDDQNPKVDLALERLIANNNGFKAGDKVQFTTFLRNSGDLPIGKDSKVVVKFYVDGVQLGDPVEISGGIAVGQRIPVTSPELTVSKTDFTVKAVIDSSSTYADGAEDAVIENNWIEAAFNSTAPSSGYELVVTGIKITPDTVKEGDYVQAQVTVANQGPEATPVTNIIGWFYVNGYYYTLDDAAKSCAEQDNVTLKPGESITLSTKVKYRAAAPFNFSFVLENLYADDQNQSNNSITVNVPVKMGEGGVNMVSNPGFEDGLDSWQDWQQDMSAVPEAAHNGALGLKIGGGKAAGGGQDIPLKPNTTYILGAWAKFDSKPAGTFDVVVQYHLKDANNTYVQHILNFNETDWTYKQLLFTTPDVFGSTPQLALWKGDTSKANLYVDDVYLVEVSNLIVNGTAENGMDGWPDWGYPVSAVPEAAYGGTKGFKLSGGKQAGMGQKVALKPNTTYILGAWGKFTAKPGTYCDVIVQYHLKDANNTYVQNILRFTETDWTYKQVVFTTPDAFGSDPEFVLWKDDASNADFYADNITLVEV"}}, "assay_in_all_cases": "Catalytic efficiency with oligosaccharides, HPAEC (Man5A-TM1)", "type_in_all_cases": "biochemical, Caldanaerobius polysaccharolyticus", "settings_in_all_cases": "other: Man5A-TM1 0.3 μM, oligosaccharide 30 μM, citrate buffer 50 mM, pH 5.5, 5 min, triplicate", "key": {"[1]": {"substrate": "OC[C@H]1O[C@@H](O[C@H]2[C@H](O)[C@@H](O)[C@H](O[C@H]3[C@H](O)[C@@H](O)[C@H](O[C@H]4[C@H](O)[C@@H](O)[C@H](O[C@H]5[C@H](O)[C@@H](O)[C@H](O[C@H]6[C@H](O)[C@@H](O)C(O)O[C@@H]6CO)O[C@@H]5CO)O[C@@H]4CO)O[C@@H]3CO)O[C@@H]2CO)[C@H](O)[C@@H](O)[C@@H]1O", "experimental": "(§1) Cloning, expression, and purification of Man5A-TM1, Man5A-TM2 and Man5B. C. polysaccharolyticus was cultured in TYG medium and DNA was isolated from mid-log cultures and purified using the Qiagen DNeasy Blood and Tissue kit with an integrated RNase treatment step. The genome of C. polysaccharolyticus was partially sequenced by the W. M. Keck Biotechnology Center at the University of Illinois at Urbana-Champaign. A Newbler assembly was generated which is comprised of ½ plate of FLX PE 454 data and ½ plate of 8 kb paired-end GSFLX Titanium data using a Genome Sequencer instrument from 454 Life Sciences (Branford, Conn.). The partial genome sequence was uploaded onto the Rapid Annotation using Subsystem Technology (RAST) server (Aziz et al., BMC Genomics, 9:75, 2008). Auto-annotation of the C. polysaccharolyticus partial genome sequence identified ORF0760 as a gene predicted to encode a bifunctional β-D-mannanase/endoglucanase (Man5B). Man5A was previously identified in a recombinant phage library of C. polysaccharolyticus genomic DNA, which was screened for endoglucanase activity (Cann et al., J Bacteriol, 181:1643, 1999) and the full sequence of this gene was also identified in the partial genome sequence for C. polysaccharolyticus.\n(§2) The DNA sequence corresponding to man5B was amplified by the PicoMaxx high fidelity PCR kit using genomic DNA as the template with the primer set Man5B-Forward and Man5B-Reverse (Table 1-1). The primers were engineered to incorporate a 5′-[…] (SEQ ID NO: 54) extension in Man5B-F and a 5′-[…] (SEQ ID NO: 55) extension in Man5B-R, which facilitated subsequent directional cloning. The resultant man5B amplicon was then digested with T4 DNA polymerase exonuclease activity, annealed with a similarly digested pET-46b vector and introduced into E. coli JM109 by electroporation. Man5A-TM1 was amplified using genomic DNA as template with primers Man5A-TM1-F and Man5A-TM1-R (Table 1-1). The primer sets for Man5A-TM1 and Man5A-TM2 were designed to include 5′-NdeI and 3′-XhoI restriction sites for subsequent directional cloning. The resulting amplicons were then cloned into the pGEM-T vector via TA-cloning and subcloned in-frame with the hexahistidine (His6) encoding sequence of a modified pET-28a expression vector via its NdeI-XhoI polylinker site. The truncated protein Man5A-TM2 originally named ManA-SLH-CBD was cloned as described in a previous study (Cann et al., J Bacteriol, 181:1643, 1999). Expression of each of the resulting gene constructs yielded fusion proteins containing an N-terminal polyhistidine tag sequence to facilitate affinity purification via metal chelate chromatography. The resulting plasmid constructs pET46-Man5B, pET28a-Man5A-TM1, and pET-28a-Man5A-TM2 were sequenced to confirm the integrity of the cloned genes (W. M. Keck Center for Comparative and Functional Genomics at the University of Illinois at Urbana-Champaign).\n(§3) The plasmid constructs were then introduced into E. coli BL-21 CodonPlus (DE3) RIL competent cells by heat shock, and grown overnight in lysogeny broth (LB) agar medium supplemented with ampicillin (100 μg/mL) and chloramphenicol (50 μg/mL) at 37° C. After 12 h, single colonies were selected and used to inoculate fresh LB (10 mL) supplemented with the antibiotics above at the same concentrations, followed by culturing with aeration for 8 h at 37° C. The pre-cultures were then inoculated into fresh LB (1 L) supplemented with ampicillin and chloramphenicol and the cultures were incubated at 37° C. with vigorous aeration (225 rpm/min). The cultures were grown to an optical density of 0.3 at 600 nm, and the temperature was shifted to 16° C. and gene expression was induced by the addition of 0.1 mM isopropyl β-D-thiogalactopyranoside (IPTG). […]"}, "[2]": {"substrate": "OC[C@H]1O[C@@H](O[C@H]2[C@H](O)[C@@H](O)[C@H](O[C@H]3[C@H](O)[C@@H](O)[C@H](O[C@H]4[C@H](O)[C@@H](O)[C@H](O[C@H]5[C@H](O)[C@@H](O)C(O)O[C@@H]5CO)O[C@@H]4CO)O[C@@H]3CO)O[C@@H]2CO)[C@H](O)[C@@H](O)[C@@H]1O", "experimental": "as §1, §2, §3"}, "[3]": {"substrate": "OC[C@H]1O[C@@H](O[C@H]2[C@H](O)[C@@H](O)[C@H](O[C@H]3[C@H](O)[C@@H](O)[C@H](O[C@H]4[C@H](O)[C@@H](O)C(O)O[C@@H]4CO)O[C@@H]3CO)O[C@@H]2CO)[C@H](O)[C@@H](O)[C@@H]1O", "experimental": "as §1, §2, §3"}, "[4]": {"substrate": "OC[C@H]1O[C@@H](O[C@H]2[C@H](O)[C@H](O)[C@H](O[C@H]3[C@H](O)[C@H](O)[C@H](O[C@H]4[C@H](O)[C@H](O)[C@H](O[C@H]5[C@H](O)[C@H](O)C(O)O[C@@H]5CO)O[C@@H]4CO)O[C@@H]3CO)O[C@@H]2CO)[C@@H](O)[C@@H](O)[C@@H]1O", "experimental": "as §1, §2, §3"}, "[5]": {"substrate": "OC[C@H]1O[C@@H](O[C@H]2[C@H](O)[C@H](O)[C@H](O[C@H]3[C@H](O)[C@H](O)[C@H](O[C@H]4[C@H](O)[C@H](O)C(O)O[C@@H]4CO)O[C@@H]3CO)O[C@@H]2CO)[C@@H](O)[C@@H](O)[C@@H]1O", "experimental": "as §1, §2, §3"}, "[6]": {"substrate": "OC[C@H]1O[C@@H](O[C@H]2[C@H](O)[C@H](O)[C@H](O[C@H]3[C@H](O)[C@H](O)[C@H](O[C@H]4[C@H](O)[C@H](O)[C@H](O[C@H]5[C@H](O)[C@H](O)[C@H](O[C@H]6[C@H](O)[C@H](O)C(O)O[C@@H]6CO)O[C@@H]5CO)O[C@@H]4CO)O[C@@H]3CO)O[C@@H]2CO)[C@@H](O)[C@@H](O)[C@@H]1O", "experimental": "as §1, §2, §3"}}}
{"protein": "B1", "values": [{"measurement": "kcat/Km", "setting": "[1]", "value": "20000 ± 2000", "unit": "M⁻¹ s⁻¹"}, {"measurement": "kcat/Km", "setting": "[2]", "value": "9300 ± 2000", "unit": "M⁻¹ s⁻¹"}, {"measurement": "kcat/Km", "setting": "[3]", "value": "11000 ± 2000", "unit": "M⁻¹ s⁻¹"}, {"measurement": "kcat/Km", "setting": "[4]", "value": "33000 ± 3000", "unit": "M⁻¹ s⁻¹"}, {"measurement": "kcat/Km", "setting": "[5]", "value": "17000 ± 4000", "unit": "M⁻¹ s⁻¹"}, {"measurement": "kcat/Km", "setting": "[6]", "value": "(1.2 ± 0.2) × 10^2 mM^−1 s^−1"}]}
